Test results: patent US20240343803A1 (SHANDONG SIMCERE BIOPHARMACEUTICAL, published 2024)
Residue numbers refer to the chain shown, from its start.

B1: TIGIT-006-H5L1 (antibody, V domains shown)
VH: EVQLQESGPGLVKPSETLSLTCAVSGYSMTSDYWNWIRQPPGKKLEYIGYISYSGRTYYNPSLKSRVTISRDTSKNQFSLKLSSVTAADTAVYYCARGDYSNYGGAMYDWGQGTTVTVSS
VL: DIVMTQTPLSLSVTPGQPASISCRASQGVSTTIAWYLQKPGQSPQLLIYSASYRYTGVPDRFSGSGSGTDFTLKISRVEAEDVGVYYCQQYYSSPFTFGGGTKVEIK
notes: Humanized anti-TIGIT antibody
B2: TIGIT-006-H2L3 (antibody, V domains shown)
VH: B1 VH with K44G, Y47W
VL: DIVMTQSPDSLAVSLGERATINCRASQGVSTTIAWYQQKPGQSPKLLIYSASYRYTGVPRFSGSGSGTDFTLTISSLQAEDVAVYYCQQYYSSPFTFGGGTKVEIK
notes: Humanized anti-TIGIT antibody
B3: TIGIT-006-H3L3 (antibody, V domains shown)
VH: B1 VH with Y47W
VL: B2 VL
notes: Humanized anti-TIGIT antibody
B4: TIGIT-006-H1L3 (antibody, V domains shown)
VH: B1 VH with M29I, K44G, Y47W
VL: B2 VL
notes: Humanized anti-TIGIT antibody
B5: TIGIT-006-H5L2 (antibody, V domains shown)
VH: B1 VH
VL: B1 VL with L37Q, Q45K
notes: Humanized anti-TIGIT antibody
B6: PVRIG-A15 (Fc fusion)
chain: QVQLVESGGGLVQAGGSLRLSCVASGRTFSANTMAWFRQAPGKEREFVAYTRWTDDNTDYASYADFVKGRFTAFRDNTRNTMYLQMNRLRPEDTAVYYCAAATTRGTYYSAGDYNSWGQGTQVTVSS
notes: heavy chain antibody VHH-hinge-CH2-CH3, human IgG1 constant part; not shown: human IgG1 hinge-CH2-CH3
B7: PVRIG-A30 (Fc fusion)
chain: QVQLVESGGGLVQPGGSLRLSCAASGRTDSMNVMGWFRRAPGKEREFVARIKWNGDTTYTAYADFLKGRFTLYGAVARNRVYLQMNSLQPEDTAVYYCAAGEVSGSSYSPDYGMHYWGKGTLVTVSS
notes: as for B6
B8: PVRIG-A60 (Fc fusion)
chain: QVQLVESGGGLVQSGGSLRLSCAASGRTRSMYVMGWFRQAPGKEREFVGRIKWSGDTTYTSYADFVKGRFTLYGNQARNTVYLQMNSLKPEDAAVYYCNLRRLDGVNYWGKGTLVTVSS
notes: as for B6

Experiments:
[1] = biological target: T1, Fusion protein of extracellular domain of human TIGIT and His-tag (human TIGIT ECD-his) (human); assay: BIAcore
T1 chain: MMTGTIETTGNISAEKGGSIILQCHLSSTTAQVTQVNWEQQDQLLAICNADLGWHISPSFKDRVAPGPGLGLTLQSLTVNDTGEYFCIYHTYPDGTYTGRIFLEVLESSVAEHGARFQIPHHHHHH

[2] = biological target: T2, Fusion protein of extracellular domain of cynomolgus monkey TIGIT and mouse IgG2a Fc fragment (cynomolgus … (cynomolgus monkey)); assay: ELISA, cynomolgus monkey TIGIT ECD-mFc
T2 construct: The entry includes the signal peptide (limits not recoverable) and the mouse IgG2a Fc
Method in brief: (§1)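 Antibodies diluted to 13 nM in 1% BSA, then 3-fold serial dilution for 12 concentrations, incubated with milk-blocked plates at 37° C for 1.5-2 h. Bound antibody detected with HRP-labelled secondary antibody (1:5000, 37° C, 1 h) and TMB, stopped with 1M HCl; OD450 nm read.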

[3] = biological target: T3, Full-length human TIGIT on CHO-K1 cells (CHO-K1 human TIGIT) (human, UniProt Q495A1 22-244); assay: cell binding, CHO-K1 human TIGIT high expression strain
T3 construct: NCBI XP_024309156.1; the entry includes the signal peptide (limits not recoverable); The strain (high, medium, low) is named under assay; also called high expression strain 1D2; medium expression strain 2D10
T3 sequence: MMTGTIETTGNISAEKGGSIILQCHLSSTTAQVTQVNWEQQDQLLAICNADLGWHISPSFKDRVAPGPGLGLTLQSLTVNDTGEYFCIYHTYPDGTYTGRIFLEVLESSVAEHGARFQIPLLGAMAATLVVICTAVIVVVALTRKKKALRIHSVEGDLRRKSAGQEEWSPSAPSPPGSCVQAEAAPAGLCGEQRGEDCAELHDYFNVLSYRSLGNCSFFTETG
Method in brief: (§2)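 Binding was measured by flow cytometry after a 60-minute, 4° C incubation of the antibodies with 2×10⁵ CHO-K1 cells displaying full-length human or cynomolgus monkey TIGIT. Antibody titration: 12 points, threefold serial dilution from 80 nM, in 1% BSA-PBS.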

[4] = biological target: T4, Fusion protein of extracellular domain of human TIGIT and human IgG1 Fc fragment (human TIGIT ECD-hFc) (human); assay: blocking of TIGIT ECD-hFc binding to CHO-K1 CD155 cells
T4 construct: The entry includes the signal peptide (limits not recoverable) and the human IgG1 Fc
Method in brief: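 Inhibition was expressed as IC50 values derived from the inhibition curves of a cell-based ELISA. CHO-K1 CD155 cells were cultured overnight, fixed, and blocked with 5% skim milk-PBS. Antibodies were first premixed for 0.5 h with human TIGIT ECD-hFc at a working concentration of 30 ng/mL, and the mixture was then added to the cells for 1.5-2 h at 37° C. Bound TIGIT was detected with HRP secondary antibody (1:5000, 37° C, 1 h) and TMB, and read as OD450 nm.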

[5] = biological target: T5, Fusion protein of extracellular domain of human TIGIT and mouse IgG2a Fc fragment (human TIGIT ECD-mFc) (human); assay: ELISA, human TIGIT ECD-mFc
T5 construct: The entry includes the signal peptide (limits not recoverable) and the mouse IgG2a Fc
T5 chain: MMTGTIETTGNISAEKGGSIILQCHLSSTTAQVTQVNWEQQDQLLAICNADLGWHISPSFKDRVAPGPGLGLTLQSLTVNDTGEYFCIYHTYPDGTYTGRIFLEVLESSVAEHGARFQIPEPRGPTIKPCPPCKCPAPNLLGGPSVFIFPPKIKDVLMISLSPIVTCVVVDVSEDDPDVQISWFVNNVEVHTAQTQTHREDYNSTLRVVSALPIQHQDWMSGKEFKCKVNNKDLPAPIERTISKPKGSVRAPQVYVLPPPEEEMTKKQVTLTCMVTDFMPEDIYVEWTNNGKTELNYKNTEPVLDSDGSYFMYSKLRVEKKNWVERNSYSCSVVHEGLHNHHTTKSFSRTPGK
Method in brief: as §1

[6] = biological target: T6, Full-length cynomolgus monkey TIGIT on CHO-K1 cells (CHO-K1 cynomolgus monkey TIGIT) (cynomolgus monkey); assay: cell binding, CHO-K1 cynomolgus monkey TIGIT
T6 construct: NCBI XP_015300911.1
Method in brief: as §2

[7] = biological target: T1, Fusion protein of extracellular domain …; assay: BIAcore; KD ratio to TIGIT-CHI-006
[8] = biological target: T7, human PVRIG-his (AcroBiosystems, Cat NO. PVG-H52H4) (human, UniProt Q6DKI7 41-171, limits assumed); assay: competition ELISA, PVRIG-His coated, competitor human PVRL2-mFc
T7 construct: also called human PVRIG protein
T7 sequence (looked up): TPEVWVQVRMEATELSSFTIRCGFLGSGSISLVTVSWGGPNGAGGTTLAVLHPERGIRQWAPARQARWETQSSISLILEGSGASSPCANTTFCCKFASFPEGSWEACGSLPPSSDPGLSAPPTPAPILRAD
Protocol: The ELISA plate was pre-coated with 100 μL/well of 0.5 μg/mL human PVRIG-his protein (AcroBiosystems, Cat NO. PVG-H52H4). The tested anti-PVRIG antibodies were diluted from the highest concentration of 16 nM (two-fold concentration). The diluted antibodies were mixed with 18 ng/ml human PVRL2-mFc (AcroBiosystems, Cat NO. CD2-H5257) in equal volume, added into the plate (100 μL/well), and incubated with shaking at room temperature for 2.0 hours. […] A HRP substrate, TMB (Thermo, Cat NO. 34029) was added into wells after washing the plate again for color development. After adding a termination solution to terminate the reaction, the absorbance value was read by a microplate reader (MD i3×). An inhibiting curve was drawn with concentration of antibodies as the abscissa and the corresponding OD value as the ordinate. The IC50 value was calculated by using a Four Parameter Logistic Fit (GraphPadPrism9). The smaller the IC50 value, the stronger the ability of the antibodies inhibits the binding between PVRIG and PVRL2. The positive and negative controls are the same as in Example 8.

[9] = biological target: T8, human PVRIG-mFc protein (Acro, PVG-H5253) (human, UniProt Q6DKI7 41-171, limits assumed); assay: FACS competition, PVRIG-mFc binding to CHO-K1-CD112 cells, competitor CD112 on cells
T8 construct: bought protein
T8 sequence (looked up): T7 sequence (looked up)
Protocol: A working solution of human PVRIG-mFc protein (Acro, PVG-H5253) prepared with staining buffer, 1 μg/mL (four-fold concentration), was added into a 96-well plate (50 μL PVRIG-mFc working solution per well). […] The diluted antibodies were added to the well containing 50 μL of PVRIG-mFc. The plate was placed on a microplate shaker at 400 rpm for 1 minute to fully mix the antibodies and PVRIG-mFc proteins, and then incubated at 4° C. for 30 minutes. After the incubation, the cell suspension prepared above (100 μL) was added into the wells, gently mixed with the pipette tip and incubated at 4° C. for 30 minutes. After the incubation, the cells were washed twice with staining buffer (200 μL per well) and centrifuged at 350×g for 5 minutes to discard the supernatant. The PE goat anti-mouse IgG Fc antibody (Biolegend, 405337) was diluted 250 times with staining buffer, added into the washed wells (100 μL per well), mixed well, and stained at 4° C. for 30 minutes. After staining, the cells were washed twice with staining buffer, finally resuspended with 200 μL staining buffer and analyzed by flow cytometry (BD, Canto II). The weaker the fluorescence signal, the stronger the ability of the antibodies blocks the binding of CHO-K1 human CD112 cells to the PVRIG-mFc protein. An antibody binding curve was drawn with concentration of antibodies as the abscissa and the corresponding Mean Fluorescence Intensity (MFI) as the ordinate. The IC50 value of the antibodies and the AUC value of the binding curve were calculated by using a Four Parameter Logistic Fit (GraphPadPrism9). The smaller the IC50 value and AUC value, the stronger the ability of the antibodies competes with CHO-K1-CD112 cells to bind to human PVRIG-mFc protein. […] […] The smaller the percentage value, the stronger the blocking ability of the antibodies.

[10] = biological target: T7, human PVRIG-his (AcroBiosystems, Cat …); assay: SPR (BIAcore), antibody captured on Protein A chip, human PVRIG-His analyte
Protocol: Biacore was used to detect the specific binding between anti-PVRIG antibody and human PVRIG protein. Protein A chip was used in the BIAcore assay. The time required for the chip to capture the diluted antibody and saturate the binding antigen to reach Rₘₐₓ (Maximum binding capacity, 50 RU) was measured by manual run. […] The affinity of antibody for antigen was measured by multi-cycle kinetics. In each cycle, the antibodies were injected prior to the injection of gradient concentraions of PVRIG proteins allowing the occurrence of antibody-antigen association and dissociation After each cycle, the Protein A chip was regenerated by Glycine, pH 1.5 (to remove the proteins on the chip). The affinity of antibody for antigen was calculated by BIAcore T200 analysis software.

T6 sequence (chain, as listed by the source limits assumed): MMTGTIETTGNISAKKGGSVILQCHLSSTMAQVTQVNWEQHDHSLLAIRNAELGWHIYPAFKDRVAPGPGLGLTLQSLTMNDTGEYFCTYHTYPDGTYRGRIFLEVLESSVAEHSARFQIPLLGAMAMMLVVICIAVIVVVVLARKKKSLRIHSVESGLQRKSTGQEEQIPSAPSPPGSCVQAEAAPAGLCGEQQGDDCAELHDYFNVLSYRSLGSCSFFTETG
T4 sequence (chain, as listed by the source limits assumed): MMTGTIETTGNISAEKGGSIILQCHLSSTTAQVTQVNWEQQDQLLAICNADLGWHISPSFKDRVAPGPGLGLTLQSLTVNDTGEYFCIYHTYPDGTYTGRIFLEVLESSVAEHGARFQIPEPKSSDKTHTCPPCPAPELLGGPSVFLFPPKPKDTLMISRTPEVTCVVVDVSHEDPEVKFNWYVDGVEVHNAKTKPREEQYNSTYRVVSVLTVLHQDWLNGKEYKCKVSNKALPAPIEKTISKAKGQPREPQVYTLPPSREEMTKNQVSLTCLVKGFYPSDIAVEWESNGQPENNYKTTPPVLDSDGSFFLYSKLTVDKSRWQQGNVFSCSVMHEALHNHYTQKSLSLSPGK

Binder	Kd [1]	koff [1]	kon [1]	EC50 [2]	EC50 [3]	IC50 [4]	EC50 [5]	EC50 [6]	Fold change vs chimeric antibodies (KD) [7]	binding result [2]	binding result [6]	IC50 [8]	% AUC to COM701-hIgG4 [9]	% AUC to SRF813-hIgG1 [9]	% IC50 to COM701-hIgG4 [9]	% IC50 to SRF813-hIgG1 [9]	Kd [10]	koff [10]	kon [10]
B1	0.0713 nM	0.000163 s⁻¹	2.29e+06 M⁻¹ s⁻¹	0.0182 nM	0.0399 nM	0.537 nM	0.0108 nM	0.162 nM	0.92 fold	–	–	–	–	–	–	–	–	–	–
B2	0.515 nM	0.000216 s⁻¹	420000 M⁻¹ s⁻¹	24.4 nM	0.0353 nM	0.633 nM	0.0103 nM	0.255 nM	6.65 fold	–	–	–	–	–	–	–	–	–	–
B3	0.482 nM	0.000176 s⁻¹	365000 M⁻¹ s⁻¹	0.779 nM	0.0317 nM	0.681 nM	0.0095 nM	6.29 nM	6.23 fold	–	–	–	–	–	–	–	–	–	–
B4	2.66 nM	0.000384 s⁻¹	144000 M⁻¹ s⁻¹	–	0.0596 nM	1.23 nM	0.0185 nM	–	34.4 fold	no binding	no binding	–	–	–	–	–	–	–	–
B5	0.08 nM	0.000184 s⁻¹	2.3e+06 M⁻¹ s⁻¹	0.0172 nM	0.0239 nM	0.576 nM	0.0111 nM	0.0849 nM	1.03 fold	–	–	–	–	–	–	–	–	–	–
B6	–	–	–	–	–	–	–	–	–	–	–	0.208 nM	77.2%	77.3%	54.1%	72.4%	0.377 nM	2.31e-05 s⁻¹	61200 M⁻¹ s⁻¹
B7	–	–	–	–	–	–	–	–	–	–	–	0.255 nM	58.9%	58.9%	48.1%	64.4%	0.404 nM	6.36e-05 s⁻¹	157000 M⁻¹ s⁻¹
B8	–	–	–	–	–	–	–	–	–	–	–	0.0557 nM	117%	103%	98.9%	96.4%	0.283 nM	3.97e-05 s⁻¹	141000 M⁻¹ s⁻¹
